Measurements: the supplement of paper PMC10065799, “High-throughput profiling of sequence recognition by tyrosine kinases and SH2 domains using bacterial peptide display” (eLife, 2023)

Tests used:
[1] = target: EPHB2 (UniProt P29323); experiment: phosphorylation enrichment, bacterial display (enrichment ratio); higher = better substrate or ligand; peptides without Tyr show the background
[2] = target: EPHB1 (UniProt P54762); experiment: as above
[3] = test system: AncSZ; experiment: as above
[4] = test system: c-Src; experiment: as above
[5] = target: Jak2 (UniProt O60674); experiment: as above
Sequence of Jak2 (O60674 whole entry, looked up): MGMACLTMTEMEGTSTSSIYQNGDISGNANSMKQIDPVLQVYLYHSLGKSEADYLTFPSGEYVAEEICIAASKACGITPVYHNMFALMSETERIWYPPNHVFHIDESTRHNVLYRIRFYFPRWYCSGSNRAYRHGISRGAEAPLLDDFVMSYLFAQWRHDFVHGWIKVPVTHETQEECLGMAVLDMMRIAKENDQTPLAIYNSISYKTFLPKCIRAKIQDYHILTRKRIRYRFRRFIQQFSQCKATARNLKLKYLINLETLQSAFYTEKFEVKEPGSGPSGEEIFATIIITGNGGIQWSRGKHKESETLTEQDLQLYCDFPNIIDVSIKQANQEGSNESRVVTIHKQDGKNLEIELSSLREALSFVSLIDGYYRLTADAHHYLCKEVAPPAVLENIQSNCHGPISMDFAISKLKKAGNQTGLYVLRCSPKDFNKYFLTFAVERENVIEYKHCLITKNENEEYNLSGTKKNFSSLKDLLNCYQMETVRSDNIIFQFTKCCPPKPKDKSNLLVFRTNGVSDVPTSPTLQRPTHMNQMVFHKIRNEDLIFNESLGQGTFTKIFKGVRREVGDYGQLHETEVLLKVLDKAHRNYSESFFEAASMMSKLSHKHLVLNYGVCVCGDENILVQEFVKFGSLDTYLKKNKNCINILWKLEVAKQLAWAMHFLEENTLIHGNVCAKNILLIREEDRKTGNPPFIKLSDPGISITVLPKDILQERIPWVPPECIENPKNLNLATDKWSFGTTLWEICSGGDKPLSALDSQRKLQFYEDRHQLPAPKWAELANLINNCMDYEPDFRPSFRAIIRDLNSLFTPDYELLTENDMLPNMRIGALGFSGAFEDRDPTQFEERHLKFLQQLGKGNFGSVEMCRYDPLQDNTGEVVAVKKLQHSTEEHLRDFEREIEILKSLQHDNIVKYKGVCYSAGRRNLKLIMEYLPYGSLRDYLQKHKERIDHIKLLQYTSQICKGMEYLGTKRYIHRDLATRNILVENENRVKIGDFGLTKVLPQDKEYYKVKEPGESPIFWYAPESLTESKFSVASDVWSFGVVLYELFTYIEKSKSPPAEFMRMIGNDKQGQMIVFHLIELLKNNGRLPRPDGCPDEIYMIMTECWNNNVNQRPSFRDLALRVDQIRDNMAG

[6] = target: FGFR1 (UniProt P11362); experiment: as above
Sequence of FGFR1 (P11362 whole entry, looked up): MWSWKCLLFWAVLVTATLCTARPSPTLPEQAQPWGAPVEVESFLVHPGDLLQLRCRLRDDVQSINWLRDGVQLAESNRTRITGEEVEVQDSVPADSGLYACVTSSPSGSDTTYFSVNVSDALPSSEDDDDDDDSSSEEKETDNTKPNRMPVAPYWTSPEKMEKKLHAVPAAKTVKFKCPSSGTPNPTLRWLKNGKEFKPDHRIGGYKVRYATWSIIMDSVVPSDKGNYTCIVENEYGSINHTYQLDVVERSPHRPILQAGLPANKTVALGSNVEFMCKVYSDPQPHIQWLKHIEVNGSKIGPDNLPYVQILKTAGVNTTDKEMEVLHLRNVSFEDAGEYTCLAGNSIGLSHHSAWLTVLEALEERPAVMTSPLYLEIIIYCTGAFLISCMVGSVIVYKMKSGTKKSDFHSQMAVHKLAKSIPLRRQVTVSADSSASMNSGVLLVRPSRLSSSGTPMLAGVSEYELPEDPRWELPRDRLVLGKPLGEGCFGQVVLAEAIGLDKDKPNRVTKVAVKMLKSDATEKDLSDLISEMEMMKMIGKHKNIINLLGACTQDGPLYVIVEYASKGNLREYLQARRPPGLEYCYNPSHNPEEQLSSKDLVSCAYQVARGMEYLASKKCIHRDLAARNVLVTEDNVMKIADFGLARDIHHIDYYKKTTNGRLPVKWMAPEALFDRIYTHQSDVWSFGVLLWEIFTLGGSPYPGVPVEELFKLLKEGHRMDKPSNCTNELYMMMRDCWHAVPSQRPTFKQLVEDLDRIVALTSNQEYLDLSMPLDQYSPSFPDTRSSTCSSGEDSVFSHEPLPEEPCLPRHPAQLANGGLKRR

[7] = target: Fyn (UniProt P06241); experiment: as above
Sequence of Fyn (P06241 whole entry, looked up): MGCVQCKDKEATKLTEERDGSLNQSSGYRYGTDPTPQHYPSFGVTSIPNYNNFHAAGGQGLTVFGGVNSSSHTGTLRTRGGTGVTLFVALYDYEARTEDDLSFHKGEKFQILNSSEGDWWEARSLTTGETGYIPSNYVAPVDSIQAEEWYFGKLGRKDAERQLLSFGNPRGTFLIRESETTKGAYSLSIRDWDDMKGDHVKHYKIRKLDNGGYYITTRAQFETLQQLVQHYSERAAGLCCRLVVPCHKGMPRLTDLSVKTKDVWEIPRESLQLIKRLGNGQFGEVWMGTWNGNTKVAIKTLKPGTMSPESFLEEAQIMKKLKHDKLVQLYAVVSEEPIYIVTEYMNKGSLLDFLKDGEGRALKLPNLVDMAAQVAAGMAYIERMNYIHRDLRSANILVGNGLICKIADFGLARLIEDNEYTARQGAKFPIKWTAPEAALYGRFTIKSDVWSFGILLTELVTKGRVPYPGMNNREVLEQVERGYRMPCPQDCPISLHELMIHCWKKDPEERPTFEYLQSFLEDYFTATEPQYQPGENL

[8] = test system: c-Abl (mouse); experiment: as above
[9] = target: FGFR3 (UniProt P22607); experiment: as above
Sequence of FGFR3 (P22607 whole entry, looked up): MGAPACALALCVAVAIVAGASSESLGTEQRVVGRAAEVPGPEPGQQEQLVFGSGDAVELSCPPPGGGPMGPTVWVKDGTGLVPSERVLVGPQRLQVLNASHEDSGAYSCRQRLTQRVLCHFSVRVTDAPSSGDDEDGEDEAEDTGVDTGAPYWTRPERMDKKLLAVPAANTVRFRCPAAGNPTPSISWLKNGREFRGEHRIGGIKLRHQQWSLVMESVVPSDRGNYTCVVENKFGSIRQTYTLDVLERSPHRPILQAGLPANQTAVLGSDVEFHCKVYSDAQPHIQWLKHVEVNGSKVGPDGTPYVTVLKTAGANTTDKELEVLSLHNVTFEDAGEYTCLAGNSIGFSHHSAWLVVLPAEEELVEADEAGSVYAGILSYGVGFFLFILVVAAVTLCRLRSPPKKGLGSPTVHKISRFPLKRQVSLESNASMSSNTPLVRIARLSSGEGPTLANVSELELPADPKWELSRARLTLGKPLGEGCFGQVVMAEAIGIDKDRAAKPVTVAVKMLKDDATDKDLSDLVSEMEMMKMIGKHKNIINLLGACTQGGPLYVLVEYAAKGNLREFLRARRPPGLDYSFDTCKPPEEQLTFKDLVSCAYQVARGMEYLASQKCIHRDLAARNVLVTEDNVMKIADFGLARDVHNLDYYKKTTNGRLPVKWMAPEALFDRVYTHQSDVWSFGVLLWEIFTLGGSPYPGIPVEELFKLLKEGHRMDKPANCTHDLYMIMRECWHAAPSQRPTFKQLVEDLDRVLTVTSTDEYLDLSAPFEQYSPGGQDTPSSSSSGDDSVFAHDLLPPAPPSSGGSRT

[10] = target: Fes (UniProt P07332); experiment: as above
Sequence of Fes (P07332 whole entry, looked up): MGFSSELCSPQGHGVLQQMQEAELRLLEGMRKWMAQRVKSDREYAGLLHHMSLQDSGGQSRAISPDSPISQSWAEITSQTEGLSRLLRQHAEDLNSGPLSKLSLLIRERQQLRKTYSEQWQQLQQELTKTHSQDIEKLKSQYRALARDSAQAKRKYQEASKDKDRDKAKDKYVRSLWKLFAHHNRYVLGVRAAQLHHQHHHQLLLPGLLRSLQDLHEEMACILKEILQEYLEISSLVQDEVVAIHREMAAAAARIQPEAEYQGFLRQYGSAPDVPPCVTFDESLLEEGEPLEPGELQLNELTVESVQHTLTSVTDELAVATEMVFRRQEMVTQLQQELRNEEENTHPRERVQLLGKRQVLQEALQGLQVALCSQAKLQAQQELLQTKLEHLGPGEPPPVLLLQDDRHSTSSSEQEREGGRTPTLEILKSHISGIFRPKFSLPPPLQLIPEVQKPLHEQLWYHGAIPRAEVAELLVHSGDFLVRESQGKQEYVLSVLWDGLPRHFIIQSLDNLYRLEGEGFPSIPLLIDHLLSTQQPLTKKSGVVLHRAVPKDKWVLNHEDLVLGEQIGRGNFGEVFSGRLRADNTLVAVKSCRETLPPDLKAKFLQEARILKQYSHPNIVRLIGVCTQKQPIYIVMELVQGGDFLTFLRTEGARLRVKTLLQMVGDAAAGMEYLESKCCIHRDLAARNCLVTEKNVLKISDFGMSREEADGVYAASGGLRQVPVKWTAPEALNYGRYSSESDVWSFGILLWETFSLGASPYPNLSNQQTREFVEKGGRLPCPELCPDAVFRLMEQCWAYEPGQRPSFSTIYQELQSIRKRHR

[11] = target: Hck (UniProt P08631); experiment: as above
Sequence of Hck (P08631 whole entry, looked up): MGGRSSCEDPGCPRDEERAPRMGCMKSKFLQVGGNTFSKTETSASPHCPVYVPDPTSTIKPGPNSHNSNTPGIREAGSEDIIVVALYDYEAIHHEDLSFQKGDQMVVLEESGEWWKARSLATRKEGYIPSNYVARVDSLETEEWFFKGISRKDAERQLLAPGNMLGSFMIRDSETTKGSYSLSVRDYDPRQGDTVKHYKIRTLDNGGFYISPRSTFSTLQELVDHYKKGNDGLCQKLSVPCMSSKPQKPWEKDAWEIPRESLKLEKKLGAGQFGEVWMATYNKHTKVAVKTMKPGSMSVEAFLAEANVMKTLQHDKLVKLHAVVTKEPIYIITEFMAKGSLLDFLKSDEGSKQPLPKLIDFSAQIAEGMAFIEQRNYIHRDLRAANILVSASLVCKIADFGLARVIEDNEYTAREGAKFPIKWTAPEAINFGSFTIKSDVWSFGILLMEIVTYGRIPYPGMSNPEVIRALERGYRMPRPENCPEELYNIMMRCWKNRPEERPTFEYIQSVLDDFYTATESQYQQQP

[12] = test system: Fer (mouse); experiment: as above
[13] = target: MERTK (UniProt Q12866); experiment: as above
[14] = target: c-Src SH2; experiment: SH2 binding enrichment of the phosphorylated peptide, bacterial display (enrichment ratio); higher = better substrate or ligand; peptides without Tyr show the background
[15] = target: Grb2 SH2 (UniProt P62993); experiment: as above
Sequence of Grb2 SH2 (P62993 whole entry, looked up): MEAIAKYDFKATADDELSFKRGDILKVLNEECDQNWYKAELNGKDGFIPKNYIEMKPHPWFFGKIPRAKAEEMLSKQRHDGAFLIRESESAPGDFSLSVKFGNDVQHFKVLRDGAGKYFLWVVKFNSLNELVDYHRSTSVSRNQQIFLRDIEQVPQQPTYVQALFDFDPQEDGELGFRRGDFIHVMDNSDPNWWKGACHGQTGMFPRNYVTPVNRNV

[16] = target: SHP2-C SH2; experiment: as above
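Wherever SH2 binding enrichment of the phosphorylated peptide, bacterial display is given: peptide library displayed on the E. coli surface as eCPX fusions, selected cells deep-sequenced, score is each peptide's frequency after selection divided by its frequency in the input.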
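Wherever phosphorylation enrichment, bacterial display is given: 11-residue human phosphosite peptides and single-mutation variants displayed on the E. coli surface, counted by deep sequencing, each peptide's frequency after selection divided by its frequency in the unselected input library; frequency after pTyr selection over input frequency; kinase dosed for 20-30% of maximal phosphorylation in three min.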

Row | Sequence | phosphorylation enrichment [1] | phosphorylation enrichment [2] | phosphorylation enrichment [3] | phosphorylation enrichment [4] | phosphorylation enrichment [5] | phosphorylation enrichment [6] | phosphorylation enrichment [7] | phosphorylation enrichment [8] | phosphorylation enrichment [9] | phosphorylation enrichment [10] | phosphorylation enrichment [11] | phosphorylation enrichment [12] | phosphorylation enrichment [13] | SH2 binding enrichment [14] | SH2 binding enrichment [15] | SH2 binding enrichment [16]
1 | QADVIYVNTQL [MERTK_Y872] | 0.962 | 2.52 | 1.61 | 1.27 | 1.18 | 2.29 | 2.13 | 1 | 1.4 | 1.43 | 2.19 | 8.63 | 0.925 | 0.608 | 1.26 | 0.699
2 | ALAAPYVLYPG [CEFIP_Y1332] | 0.488 | 0.565 | 0.769 | 4.26 | 0.845 | 3.98 | 0.694 | 0.569 | 2.55 | 0.799 | 0.794 | 0.54 | 0.597 | 0.7 | 0.747 | 0.602
3 | RFLRGYRQFAF [HLA-A_Y137_D140Y_YF] | 0.514 | 0.67 | 1.19 | 0.76 | 0.661 | 0.643 | 0.583 | 0.661 | 0.579 | 0.908 | 0.519 | 0.678 | 0.587 | 0.412 | 0.895 | 0.521
4 | SLIDGYYRLTE [JAK2_Y372_A377E] | 0.531 | 0.521 | 1.17 | 0.639 | 5.79 | 1.11 | 0.427 | 0.533 | 0.997 | 1.1 | 0.583 | 0.425 | 0.441 | 2.49 | 0.843 | 1.21
5 | LEFGDYHPLKP [VPS35L_Y32] | 1.26 | 1.3 | 2.75 | 0.821 | 6.7 | 11.5 | 0.696 | 1.19 | 7.68 | 1.05 | 4.28 | 0.846 | 1.66 | 0.58 | 0.902 | 0.733
6 | AALRLYHVSDS [VIL1_Y256_K254R] | 0.508 | 0.617 | 0.738 | 0.451 | 0.734 | 0.641 | 0.579 | 0.798 | 0.763 | 0.959 | 0.485 | 0.531 | 0.478 | 0.593 | 0.757 | 0.526
7 | PTTKTYFPRFD [HBA1_Y43_H46R] | 0.421 | 0.493 | 0.569 | 0.421 | 0.731 | 0.455 | 0.319 | 0.609 | 0.432 | 0.772 | 0.38 | 0.505 | 0.373 | 0.446 | 0.819 | 0.91
8 | GGQEDYDRLRP [RAC3_Y64_A59G] | 0.691 | 0.566 | 1.17 | 0.494 | 0.861 | 0.528 | 0.458 | 0.616 | 0.624 | 0.948 | 0.759 | 0.522 | 0.461 | 0.591 | 0.821 | 0.767
9 | SVVVPYERPEV [TP53_Y220_P222R] | 0.513 | 0.439 | 0.958 | 0.432 | 0.846 | 0.495 | 0.475 | 0.731 | 0.627 | 0.988 | 0.502 | 0.51 | 0.401 | 1.12 | 0.889 | 0.57
10 | PGPQSYPTVTG [PAX5_Y299_I301T] | 0.725 | 0.79 | 0.819 | 0.594 | 0.892 | 0.811 | 0.828 | 1.06 | 0.539 | 0.888 | 0.582 | 0.63 | 0.707 | 0.513 | 0.787 | 0.824
11 | PADQAYSWFQH [NDST1_Y711_R709Q_YF] | 0.926 | 1.3 | 1.7 | 2.41 | 0.855 | 5.17 | 1.38 | 0.58 | 4.33 | 2.91 | 1.36 | 26.6 | 7.11 | 0.891 | 0.648 | 1.01
12 | PTTKTYFPQFD [HBA1_Y43_H46Q] | 0.58 | 0.672 | 0.83 | 0.74 | 0.737 | 0.576 | 0.617 | 0.597 | 0.636 | 0.922 | 0.611 | 0.499 | 0.428 | 0.59 | 0.772 | 1.11
13 | QDTSRYTVCNL [BIRC3_Y245_S248C] | 0.439 | 0.528 | 0.745 | 0.439 | 0.741 | 0.418 | 0.546 | 0.854 | 0.469 | 0.815 | 0.359 | 0.557 | 0.348 | 1.29 | 0.79 | 0.78
14 | LITTLYIGFLG [KCNQ1_Y267] | 1.12 | 1.19 | 2.41 | 3.29 | 2.33 | 0.712 | 2.11 | 2.22 | 1.89 | 2.46 | 1.51 | 0.929 | 0.989 | 1.02 | 1.06 | 0.808
15 | PDGVEYLKNNP [GRIN3A_Y831_D835N] | 0.452 | 0.527 | 1.21 | 0.539 | 1.31 | 0.503 | 0.543 | 0.748 | 0.769 | 1.05 | 0.664 | 0.499 | 0.546 | 0.348 | 0.982 | 0.849
16 | GGGGSYNDFGN [HNRNPA1_Y312] | 0.39 | 0.433 | 0.599 | 0.441 | 0.579 | 0.471 | 1.17 | 0.458 | 0.5 | 0.791 | 0.474 | 0.33 | 0.422 | 0.513 | 0.745 | 0.659
17 | DQVEQYNKELE [LMNA_Y259_K260N] | 0.672 | 0.683 | 1.09 | 0.459 | 1.17 | 0.552 | 0.558 | 0.692 | 0.762 | 1.23 | 0.581 | 0.494 | 0.418 | 0.441 | 0.882 | 0.81
